What is called pKa is the pH at which an ionisable group is half protonated.

Like-named read-outs stand apart in the source and are kept apart here. Where a SMILES comes first, the peptide text is derived from it. Where only a bound is given, the exact number is not on record here.

The subject of series [1] is histidine-57 in α-chymotrypsin. The following applies: cited from earlier work.
Series [2] concerns the target T1, His57 (UniProt position 57, VVTAAHCGVTT). The following applies: cited from earlier work.
Series [3] in a line: 13C-NMR pH titration of free inhibitor. The following applies: carboxyl group, determined by 13C-NMR. The format is physicochemical.
Series [4] deals with T2, α-chymotrypsin (Bos taurus, UniProt P00766). The following applies: from pH 8 to 3, chymotrypsin; cited from earlier work.
Series [5] addresses T1, His57. In words: NMR. The following applies: 25 °C; hemiketal complex with the glyoxal inhibitor Z-Ala-Ala-Phe-COCHO; cited from earlier work.
Series [6] addresses T2, α-chymotrypsin. The following applies: from pH 7.2 to 3.2 or 10.2; cited from earlier work.

As for `CC(=O)N[C@@H](CC(C)C)C(=O)N[C@H](C=O)Cc1ccccc1` [Acetyl-Leu-Phe-CHO] (Ac-Leu-Phe-aldehyde), in series [1], the “histidine pKa in the complex with α-chymotrypsin” value was 6.5.

On to “chymotrypsin (activation form not specified in the quoting sentence) (Bos taurus (inferred))”, for which the pKa in series [2] (negatively charged tetrahedral adduct with peptidyl boronic acid inhibitors) is recorded as > 10.

For the compound “delta-chymotrypsin (Bos taurus (inferred))”, the pKa in series [2] (free enzyme) is 7.5.

For `CC(NC(=O)OCc1ccccc1)C(=O)NC(C)C(=O)NC(Cc1ccccc1)[13C](=O)O` (stereo not drawn) [ZAAF-^13COOH], the pKa in series [3] was determined as 3.52 ± 0.03.

Consider `O=C[C@H](Cc1ccccc1)NC(=O)c1ccccc1` [Bz-Phe-CHO], for which the “fold increase in Ki” value in series [4] is listed as 4 fold.

Take “alpha-chymotrypsin (Bos taurus (inferred; the article only says commercial alpha-chymotrypsin from Sigma))”: the results for the pKa in series [5], in series [2] (complex with the aldehyde inhibitor Acetyl-Leu-Phe-CHO (hemiacetal)) and in series [2] (free enzyme) were > 11, 6.5 and 6.7, respectively.

`C[C@H](NC(=O)OCc1ccccc1)C(=O)N1CCC[C@H]1C(=O)N[C@@H](Cc1ccccc1)C(=O)C=O` [ZAPF-COCHO]: the “change of hemiketal formation” value in series [6] is given as “decreases”.
